Source: patent US20050129676A1 (ADHEREX TECHNOLOGIES, published 2005)
Blank lines part the entries; values can stand above or below the binder they belong to.

Legend:
[1] = molecular target: T1, Fc-E-cadherin chimeric protein; experiment: SPR (BIAcore X), Fc-E-cadherin captured on protein A, peptide as analyte, 3 mM CaCl2, fit to binding isotherm
T1 construct: It was captured on immobilised protein A on a CM5 chip (about 3500 RU)
Procedure: (§1) The binding of representative peptide modulating agents to Fc-E-cadherin chimeric protein in either the presence (3 mM CaCl₂) or absence of calcium was assessed using a BIAcore X™ Biosensor (Pharmacia Ltd., Sweden). Protein A was immobilized on the flow cells of a CM 5 sensor chip using a standard amine coupling method. The surfaces were activated with a 7 min injection of NHS/EDC, followed by a 7 min injection of protein A in 10 mM acetate pH 5.0 at a concentration of 50 ug/mL and blocked with a 7 min injection of 8 M ethanolamine, pH 8.2. […] Next, Fc-E-cadherin was injected over the protein A surface to be captured on the sensor chip.
(§2) To test compound binding to these surfaces, candidate modulating agents were injected in a three-fold dilution series over the Fc-E-cadherin-coated surfaces using six concentrations and each concentration was repeated twice.

[2] = molecular target: T1, Fc-E-cadherin chimeric protein; experiment: SPR (BIAcore X), Fc-E-cadherin captured on protein A, peptide as analyte, 3 mM CaCl2, fit to binding isotherm; with Ca^++ (3 mM CaCl2)
Procedure: as §1, §2

[3] = molecular target: T1, Fc-E-cadherin chimeric protein; experiment: SPR (BIAcore X), Fc-E-cadherin captured on protein A, peptide as analyte, no calcium, fit to binding isotherm
Procedure: as §1, §2

T1 sequence (P12830 155-709, change not shown): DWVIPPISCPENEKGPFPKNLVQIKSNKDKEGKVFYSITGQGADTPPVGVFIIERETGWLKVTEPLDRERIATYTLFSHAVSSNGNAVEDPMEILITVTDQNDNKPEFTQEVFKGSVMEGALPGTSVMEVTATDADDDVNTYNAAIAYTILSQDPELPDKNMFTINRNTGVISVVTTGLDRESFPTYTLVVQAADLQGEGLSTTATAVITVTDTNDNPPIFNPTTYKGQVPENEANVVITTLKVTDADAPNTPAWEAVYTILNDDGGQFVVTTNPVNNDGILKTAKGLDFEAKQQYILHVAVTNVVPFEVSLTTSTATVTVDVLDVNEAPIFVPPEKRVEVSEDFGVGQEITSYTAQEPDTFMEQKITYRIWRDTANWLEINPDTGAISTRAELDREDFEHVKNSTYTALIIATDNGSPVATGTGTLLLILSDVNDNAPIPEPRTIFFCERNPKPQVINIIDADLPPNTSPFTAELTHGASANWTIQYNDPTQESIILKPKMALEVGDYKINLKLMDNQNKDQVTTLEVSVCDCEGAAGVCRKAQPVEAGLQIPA

Kd [1]: 34 µM
B1: H-DWVIPP-NH2 (peptide)
peptide: H-DWVIPP-NH2
notes: Linear synthetic peptide; also called ADH254

Kd [1]: 36.1 µM | Kd [3]: 66 µM
Binder: H-DWVIP-NH2 (Linear synthetic peptide) [H-DWVIP-NH2]

Kd [1]: 543 µM
B5: H-PWVIPP-NH2 (peptide)
peptide: H-PWVIPP-NH2
notes: Linear synthetic peptide; analogue of H-DWVIPP-NH2

Kd [1]: 59 µM
B6: H-DWVIPA-NH2 (peptide)
peptide: H-DWVIPA-NH2
notes: as for B5

Further lines, the binder ahead of its results:

B2: H-DWVAPP-NH2 (peptide)
peptide: H-DWVAPP-NH2
notes: as for B5
Kd [2]: 21000 µM

B3: H-DWVIAP-NH2 (peptide)
peptide: H-DWVIAP-NH2
notes: as for B5
Kd [1]: 17 µM

B4: H-AWVIPP-NH2 (peptide)
peptide: H-AWVIPP-NH2
notes: as for B5
Kd [1]: 42 µM
